Measured values taken from US20190100602A1 (INSERM INSTITUT NATIONAL DE LA SANT ET DE LA RECHERCHE M …, published 2019).

Tests used:
human antithrombin [1] = molecular target: T1, human antithrombin (human, UniProt P01008 33-464); test: cell-based or functional assay
human antithrombin [2] = molecular target: T1, human antithrombin; test: cell-based or functional assay; remark: listed apart in the source
human antithrombin [3] = molecular target: T1, human antithrombin; test: BLI (Octet-QK), sdAb coupled to sensor, antithrombin 12.5-50 ug/ml; apparent KD
Procedure: The interaction between sdAbs KB-AT-001, KB-AT-002, KB-AT-003 and KB-AT-006 versus human antithrombin was further analyzed via biolayer-interferometry analysis using Octet-QK equipment in order to determine apparent dissociation constants (KD,app). To this end, sdAbs KB-AT-001, KB-AT-002, KB-AT-003 and KB-AT-006 were diluted in 0.1 M Mes (pH 5.0) to a concentration of 200 microgram/ml for coupling to EDC/NHS-activated amine-reactive biosensors (Fort6bio, Menlo Park, Calif., USA). Sensors were rehydrated in 0.2 ml 0.1 M MES, pH 5.0 for 300 sec. Sensors were then activated via incubation with 0.1 ml 0.2 M EDC/0.095 M NHS mixture for 300 sec and subsequently incubated with 0.1 ml sdAb-solution for 600 sec. […] Following this association phase, sensors were transferred to wells containing PBS-T and incubated for 900 sec, allowing dissociation of the antithrombin-sdAb complex. Obtained data were subsequently analyzed using Octet-QK data analysis software (Origin vs 4) to estimate KD,app.

rabbit antithrombin [4] = molecular target: T2, rabbit antithrombin (rabbit); test: ELISA, sdAb coated, plasma 1/4, bound antithrombin probed with polyclonal anti-antithrombin
T2 construct: Native protein in plasma diluted 1/4; also called rabbit AT; antithrombin in rabbit plasma
Procedure: (§1) sdAbs KB-AT-001, -002. -003, -004, -005, -006, and -007 were immobilized (10 microgram/ml) in 10 mM NaHCO₃, 50 mM Na2CO3 (pH 9.5) in a volume of 50 microliter in half-well microtiter plates (Greiner Bio-One, Les Ulis, France) for 16 h at 4° C. As a positive control, polyclonal anti-antithrombin antibodies (MATIII-EIA kit, Affinity biologicals, Ancaster Canada) were immobilized in a similar fashion. As a negative control, the anti-von Willebrand sdAb KB-VWF-006 was immobilized. After washing the wells three times with 100 microliter/well using Tris-buffered saline (pH 7.6) supplemented with 0.1% Tween-20 (TBS-T), wells were blocked with 100 microliter/well of TBS-T supplemented with 3% bovine serum albumin (BSA) for 30 min at 37° C. Wells were washed as described above, and subsequently the following plasma preparations (diluted ¼ in TBS-T/3% BSA, 100 microliter per well, 2 hours at 37° C.) were added to each of the immobilized sdAbs and both types of control wells: rabbit plasma, canine plasma, simian plasma, bovine plasma, porcine plasma, rat plasma, murine plasma and human plasma.
(§2) Wells were then washed three times with 100 microliter/well using TBS-T. Bound antithrombin was probed with peroxidase-labeled polyclonal anti-antithrombin antibodies (MATIII-EIA kit, Affinity biologicals, Ancaster Canada; diluted 1/100) for 2 hours at 37° C. with 50 microliter per well. Wells were then washed three times with 100 microliter/well using TBS-T. Residual peroxidase activity was detected by measuring peroxidase-mediated hydrolysis of 3,3′,5,5′-tetramethylbenzidine.
(§3) Negative binding (−) was defined as optical density (OD) being ≤0.1, moderate positive binding (+) was defined as OD being >0.1 and <0.5, strongly positive binding (++) was defined as OD being ≥0.5. […] All plasma preparations had moderate or strongly positive binding to the positive control (polyclonal anti-antithrombin antibodies).

bovine antithrombin = molecular target: T3, bovine antithrombin (bovine, UniProt P41361 33-465); test: as above
T3 construct: Native protein in plasma diluted 1/4; also called bovine AT; antithrombin in bovine plasma
Procedure: as §1, §2, §3

porcine antithrombin [5] = molecular target: T4, porcine antithrombin (porcine); test: as above
T4 construct: Native protein in plasma diluted 1/4; also called porcine AT; antithrombin in porcine plasma
Procedure: as §1, §2, §3

canine antithrombin [6] = molecular target: T5, canine antithrombin (canine); test: ELISA, sdAb coated, plasma 1/4, bound antithrombin probed with polyclonal anti-antithrombin; grade by OD
T5 construct: Native protein in plasma diluted 1/4; also called canine AT; antithrombin in canine plasma
Procedure: as §1, §2, §3

simian antithrombin = molecular target: T6, simian antithrombin (simian); test: as above
T6 construct: Native protein in plasma diluted 1/4; also called simian AT; antithrombin in simian plasma
Procedure: as §1, §2, §3

rat antithrombin [7] = molecular target: T7, rat antithrombin (rat, UniProt Q8VHJ4); test: as above
T7 construct: Native protein in plasma diluted 1/4; also called rat AT; antithrombin in rat plasma
Procedure: as §1, §2, §3

human antithrombin [8] = molecular target: T1, human antithrombin; test: as above
Procedure: as §1, §2, §3

murine antithrombin [9] = molecular target: T8, murine antithrombin (mouse, UniProt P32261 33-465); test: as above
T8 construct: also called mouse antithrombin; murine AT
Procedure: as §1, §2, §3

rabbit antithrombin [10] = molecular target: T2, rabbit antithrombin; test: as above
Procedure: as §1, §2, §3

porcine antithrombin [11] = molecular target: T4, porcine antithrombin; test: as above
Procedure: as §1, §2, §3

human antithrombin [12] = molecular target: T1, human antithrombin; test: ELISA: sdAb coated on the plate, antithrombin added in solution; the concentration is that of antithrombin
Procedure: (§4) sdAbs recognizing antithrombin (KB-AT-001, -002, -003, -004, -005, -006, and -007) were immobilized (5 microgram/ml) in 10 mM NaHCO₃, 50 mM Na2CO3 (pH 9.5) in a volume of 50 microliter in half-well microtiter plates (Greiner Bio-One, Les Ulis, France) for 16 h at 4° C. After washing the wells three times with 100 microliter/well using Tris-buffered saline (pH 7.6) supplemented with 0.1% Tween-20 (TBS-T), wells were blocked with 100 microliter/well of TBS-T supplemented with 5% skimmed milk for 30 min at 37° C. Wells were washed as described above, and subsequently different concentrations of purified human antithrombin or murine antithrombin (0-5 micromolar diluted in Tris-buffered saline (pH 7.6) supplemented with 5% skimmed milk; 50 microliter/well) were added to each of the immobilized sdAbs and incubated for 2 hours. Wells were then washed three times with 100 microliter/well using TBS-T. Bound antithrombin was probed with peroxidase-labeled polyclonal rabbit anti-antithrombin antibodies (Diagnostica Stago, Asnièrs-sur-Seine, France; Dilution 1/100) for 1 hour at 37° C. with 50 microliter per well. Wells were then washed three times with 100 microliter/well using TBS-T. Residual peroxidase activity was detected by measuring peroxidase-mediated hydrolysis of 3,3′,5,5′-tetramethylbenzidine. OD-values were plotted against antithrombin concentrations (FIG. 1).

canine antithrombin [13] = molecular target: T5, canine antithrombin; test: ELISA, sdAb coated, plasma 1/4, bound antithrombin probed with polyclonal anti-antithrombin
Procedure: as §1, §2, §3

rat antithrombin [14] = molecular target: T7, rat antithrombin; test: as above
Procedure: as §1, §2, §3

murine antithrombin [15] = molecular target: T8, murine antithrombin; test: ELISA: sdAb coated on the plate, antithrombin added in solution; the concentration is that of antithrombin
Procedure: as §4

T1 sequence (P01008 33-464 limits assumed): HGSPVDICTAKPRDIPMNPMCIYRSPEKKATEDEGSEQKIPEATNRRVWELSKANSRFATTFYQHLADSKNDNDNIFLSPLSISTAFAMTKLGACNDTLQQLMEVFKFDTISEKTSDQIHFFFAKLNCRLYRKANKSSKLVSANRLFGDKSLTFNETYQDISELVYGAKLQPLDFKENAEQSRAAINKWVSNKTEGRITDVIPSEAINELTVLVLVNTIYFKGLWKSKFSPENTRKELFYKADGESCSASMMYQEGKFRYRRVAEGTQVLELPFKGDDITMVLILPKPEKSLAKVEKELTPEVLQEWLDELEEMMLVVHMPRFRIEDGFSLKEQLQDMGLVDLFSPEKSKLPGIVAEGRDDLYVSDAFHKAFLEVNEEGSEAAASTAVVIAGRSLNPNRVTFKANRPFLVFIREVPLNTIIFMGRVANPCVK
T8 sequence (P32261 33-465 limits assumed): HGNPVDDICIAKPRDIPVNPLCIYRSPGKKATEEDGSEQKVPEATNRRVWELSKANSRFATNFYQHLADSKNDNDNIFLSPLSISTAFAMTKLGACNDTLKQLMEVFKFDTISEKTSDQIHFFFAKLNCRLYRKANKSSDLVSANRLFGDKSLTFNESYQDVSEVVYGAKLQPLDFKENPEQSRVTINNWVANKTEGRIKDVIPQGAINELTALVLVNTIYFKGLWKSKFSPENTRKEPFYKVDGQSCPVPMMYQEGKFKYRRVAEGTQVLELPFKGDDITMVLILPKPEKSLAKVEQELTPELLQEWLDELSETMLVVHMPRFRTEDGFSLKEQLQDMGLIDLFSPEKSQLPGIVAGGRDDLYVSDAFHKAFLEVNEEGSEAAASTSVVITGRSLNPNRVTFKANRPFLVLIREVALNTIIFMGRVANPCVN
T3 sequence (P41361 33-465): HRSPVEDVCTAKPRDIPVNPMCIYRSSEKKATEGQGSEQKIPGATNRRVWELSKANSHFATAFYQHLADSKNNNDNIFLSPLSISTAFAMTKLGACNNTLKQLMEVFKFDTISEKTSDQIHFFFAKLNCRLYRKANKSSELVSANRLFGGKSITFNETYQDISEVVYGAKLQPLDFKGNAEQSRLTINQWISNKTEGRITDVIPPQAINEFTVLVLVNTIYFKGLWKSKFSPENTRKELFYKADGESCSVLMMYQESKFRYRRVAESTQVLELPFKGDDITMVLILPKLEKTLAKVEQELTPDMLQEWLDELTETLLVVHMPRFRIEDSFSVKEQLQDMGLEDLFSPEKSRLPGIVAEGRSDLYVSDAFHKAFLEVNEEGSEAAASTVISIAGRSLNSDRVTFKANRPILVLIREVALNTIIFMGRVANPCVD

Binder	percentage of neutralization of antithrombin-mediated factor Xa inhibition, with LMW-heparin (human antithrombin [1]) [%]	percentage of neutralization of antithrombin-mediated thrombin inhibition, with unfractionated heparin (human antithrombin [1]) [%]	% antithrombin neutralization (thrombin amidolytic activity on S-2238, no heparin) (human antithrombin [2]) [%]	Kd (human antithrombin [3]) [nM]	OD (rabbit antithrombin [4]) [od]	OD (bovine antithrombin) [od]	OD (porcine antithrombin [5]) [od]	OD (canine antithrombin [6]) [od]	OD (simian antithrombin) [od]	OD (rat antithrombin [7]) [od]	OD (human antithrombin [8]) [od]	OD (murine antithrombin [9]) [od]	OD (rabbit antithrombin [10]) [od]	OD (porcine antithrombin [11]) [od]	EC50 (read off the curve) (human antithrombin [12]) [nM]	OD (canine antithrombin [13]) [od]	OD (rat antithrombin [14]) [od]	EC50 (read off the curve) (murine antithrombin [15]) [nM]
KB-AT-003 (VHH, Monovalent anti-antithrombin single-domain antibody; also called sdAb KB-AT-003) VHH: QVQLVQSGGGLVQPGGSLRLSCAASALTFSSRAWAWYRQAPGKQRELVASITGGGTTNYADSVKGRFTISRDNAKNTVYLQMNSLKPEDTAVHYCNGYRYTYAWGQGTQVTVSS	< 15	< 5	67	0.4	≤ 0.1	≤ 0.1	≤ 0.1	0.1 to 0.5	≥ 0.5	0.1 to 0.5	≥ 0.5	≥ 0.5						
KB-AT-005 (VHH, Monovalent anti-antithrombin single-domain antibody; also called sdAb KB-AT-005) VHH: EVQLVESGGGLVQPGGSLRLSCEASGRDFNDAALGWSRQVPGKARETVAMITSGGVRNYAETVKDRFTISRDNAKNTVYLDMNNLQPDDTGVYYCKADSFKGDYDTSWYLYWGQGTQVTVSS	< 15	< 5	57		≤ 0.1	≤ 0.1	≤ 0.1		0.1 to 0.5		0.1 to 0.5	0.1 to 0.5				≤ 0.1	≤ 0.1	~400
KB-AT-001 (VHH, Monovalent anti-antithrombin single-domain antibody; also called sdAb KB-AT-001) VHH: QVQLQQSGGDLAQRGGSLRLSCAASGRTFRNYVMGWFRQAPGKDPEFIAGINRSGAITYYGDSVKGRFTISRDNAKNTVSLQMNSLEPEDTAVYYCAAGETTWSIRRDDYDYWGQGTQVTVSS	< 15	< 5	62	14		≤ 0.1	≤ 0.1		≥ 0.5	0.1 to 0.5	0.1 to 0.5	≥ 0.5	0.1 to 0.5		~700	≤ 0.1		~600
KB-AT-004 (VHH, Monovalent anti-antithrombin single-domain antibody; also called sdAb KB-AT-004) VHH: VQLQQSGGGLVQPGGSLRLSCAASAMTFSIRAWAWYRQAPGKQRELVASIGTGDITNYADSVKGRFTISRDNAKNTFYLQMNSLKPEDTAVYYCNGYRSTYAWGQGTQVTVSS	< 15	< 5	55		≤ 0.1	≤ 0.1		0.1 to 0.5	0.1 to 0.5	0.1 to 0.5	0.1 to 0.5	≥ 0.5		0.1 to 0.5				

Now from value to binder:

percentage of neutralization of antithrombin-mediated factor Xa inhibition, with LMW-heparin (human antithrombin [1]) [%]	percentage of neutralization of antithrombin-mediated thrombin inhibition, with unfractionated heparin (human antithrombin [1]) [%]	% antithrombin neutralization (thrombin amidolytic activity on S-2238, no heparin) (human antithrombin [2]) [%]	Kd (human antithrombin [3]) [nM]	OD (rabbit antithrombin [4]) [od]	OD (bovine antithrombin) [od]	OD (porcine antithrombin [5]) [od]	OD (canine antithrombin [6]) [od]	OD (simian antithrombin) [od]	OD (rat antithrombin [7]) [od]	OD (human antithrombin [8]) [od]	OD (murine antithrombin [9]) [od]	OD (rabbit antithrombin [10]) [od]	OD (porcine antithrombin [11]) [od]	EC50 (read off the curve) (human antithrombin [12]) [nM]	OD (canine antithrombin [13]) [od]	OD (rat antithrombin [14]) [od]	EC50 (read off the curve) (murine antithrombin [15]) [nM]	Binder
< 15	< 5	58	22		≤ 0.1		0.1 to 0.5	≥ 0.5	0.1 to 0.5	0.1 to 0.5	0.1 to 0.5	≥ 0.5	0.1 to 0.5	~500				KB-AT-006 (VHH, Monovalent anti-antithrombin single-domain antibody; also called sdAb KB-AT-006) VHH: QVQLQQSGGGLVQAGGSLRLSCAASGRTFSNNGMGWFRQAPGKEREFVAAISWSSGSTYYADSVKGRYTISRDNAKNTVYLQMNSLKPEDTAVYYCAARTRYNSGYFTRNYDYWGQGTQVTVSS
< 15	< 5	61		≤ 0.1	≤ 0.1	≤ 0.1		≥ 0.5		0.1 to 0.5	0.1 to 0.5				≤ 0.1	≤ 0.1		KB-AT-007 (VHH, Monovalent anti-antithrombin single-domain antibody; same CDRs as KB-AT-001; also called sdAb KB-AT-007) VHH: QVQLQQSGGGLVQAGGSLRLSCAASGRTFRNYVMGWFRQAPGKDPEFIAGINRSGAITYYGDSVKGRFTISRDNAKNTVSLQMNSLEPEDTAVYYCAAGETTWSIRRDDYDYWGQGTQVTVSS
